{"source": "paper PMC11570472", "about": "“Activity and phosphatidylcholine transfer protein interactions of skeletal muscle thioesterase Them2 enable hepatic steatosis and insulin resistance” (The Journal of Biological Chemistry, 2024)", "proteins": {"B1": {"name": "His-tagged WT mouse Thioesterase superfamily member 2 (Them2), purified recombinant (enzyme, UniProt Q9CQR4 1-140, looked up)", "chain": "MSSMTQNLREVMKVMFKVPGFDRVLEKVTLVSAAPEKLICEMKVEEQHTNKLGTLHGGLTATLVDSISTMALMCTERGAPGVSVDMNITYMSPAKIGEEIVITAHILKQGKTLAFASVDLTNKTTGKLIAQGRHTKHLGN", "notes": "also called WT Them2; acyl-CoA thioesterase 13"}, "B2": {"name": "His-tagged N50A/D65A mouse Them2, purified recombinant (enzyme, UniProt Q9CQR4 1-140, looked up)", "chain": "B1 chain with N50A, D65A", "notes": "also called N50A/D65A Them2"}}, "biological_target": "the molecule itself", "assay": "SEC; purified recombinant protein (100 uM) on an analytical Superdex 75 10/300 column, 0.5 ml/min, UV absorbance at 280 nm", "note": "Where a chain is given by its changes, count along the chain named. Numbers in names are those of the source.", "data": [{"protein": "B1", "values": [{"measurement": "stoichiometry N", "result": 4}]}, {"protein": "B2", "values": [{"measurement": "stoichiometry N", "result": 4}]}]}
